According to the supplement of paper PMC9170038:

Test system: MS2 coat protein
Experiment: apparent KD of MS2 coat protein; designed switch direction (-1 OFF switch, 1 ON switch): -1; higher = weaker reporter binding
How it was run: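 Designed RNA switches with common flanks were made on Illumina chips by stalled E. coli RNA polymerase. Titration with SNAP-549-labelled MS2 coat protein doubled from 0.7 or 1.5 nM up to 3 µM. Apparent KD is each design's median over clusters after curve-fitting normalised fluorescence.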

[1] = Eterna round: R95, input ligand: FMN 200 uM
[2] = Eterna round: R95, input ligand: microRNA oligo, concentration not stated
[3] = Eterna round: R95, input ligand: none
[4] = input ligand: microRNA oligo, concentration not stated

Sequence | apparent KD of MS2 coat protein (input ligand: FMN 200 uM) | apparent KD of MS2 coat protein (input ligand: none) | apparent KD of MS2 coat protein [2] | also measured
AAAUAGCUUGAGGAUAUUGGACUGGAUUCAGUGCGAGAAGGCAAGACAUGAGGAUCACCCAUGUUGUGUUGGGA [EX6 #10] (Eterna round: R97, puzzle: Exclusion 6) | 0.18 µM | 0.0916 µM |  | 
GGUGAAGCAGGAUAUGUGCUGGCAUACAUGAGGAUCACCCAUGUCAUGUAGGAACCACGUAUAGAAGGGCUUCACC [Exclusion 5 (FMN-MS2 slide v.10)] (Eterna round: R97, puzzle: Exclusion 5) | 0.0507 µM | 0.0281 µM |  | 
AAUAACAAGCCGAUCCUUUACAUGAGGAUCACCCAUGUGCUCGUCUUGUAAAGUACUAUCACGAAAGUGAUAGUACA (Eterna round: R97, puzzle: Sensor, turn-off variant 1) | 0.028 µM | 0.027 µM |  | 
AUUUACAAGCUAAGAUCCUACAUGAGGAUCACCCAUGUGGUCCGGUGACGUGAGUCACCGGACUUAGCUCGUCUUGG [salish99_S_TOV1_R5_083] (Eterna round: R97, puzzle: Sensor, turn-off variant 1) | 0.0544 µM | 0.0614 µM |  | 
UAAUAGCAAGCAAGAUCCCACAUGAGGAUCACCCAUGUGCUCGUCUUAUAAGGUACUGUGACGAAAGUCACGGUACC [Sensor 3, v1 - 98] (puzzle: Sensor v3, turn-off variant 1) |  |  | 0.535 µM | apparent KD of MS2 coat protein [1]: 0.0455 µM; apparent KD of MS2 coat protein [3]: 0.0475 µM
UUGAUGUCAUCAGGAUAUAGUAUUUAAGACAUAUCUUCUUUCAAACAUGAGGAUCACCCAUGUCGCUAGAAGGGAUUAUUGAUU [JR_ExcNG2_Sub083] (Eterna round: R96, puzzle: Exclusion NG 2) |  |  |  | apparent KD of MS2 coat protein [4]: 0.0114 µM
CCAUAUAACUGAGGAUAUACGCACCACUAACUAGUAGAAGGCAGACAUGAGGAUCACCCAUGUGAUUUCUCAAUAUUAUACAUC [Prohibition 74 - Jieux - Exclusion NG 1] (Eterna round: R96, puzzle: Exclusion NG 1) | 0.927 µM | 0.775 µM |  | apparent KD of MS2 coat protein [4]: 0.357 µM
UGAUCUAGCGGAGGAUAUACAUGAGGAUCACCCAUGUAUAGUCUAUGACCGUAGUCGUGGAACGUGUAGAAGGCCGCUAGAUCU [JL ENG2 3.78] (Eterna round: R96, puzzle: Exclusion NG 2) | 0.0184 µM | 0.0144 µM |  | apparent KD of MS2 coat protein [4]: 0.0102 µM
AAUGGGUGUGUGAGGAUAUACGAAGGCAAUUGCCAGUAGAAGGUACAUGAGGAUCACCCAUGUGUCCAAAAGAG [Tititemaon] (puzzle: Brourd's mod of Exclusion 4) |  |  | 0.00911 µM | apparent KD of MS2 coat protein [1]: 0.0128 µM; apparent KD of MS2 coat protein [3]: 0.0132 µM
GAGCUGUGAGGAUAUACAUGAGGAUCACCCAUGUAAUGGUAGUCGGGAUUAAUUUGGUGUAGAAGGCGCUUAUU [JR_Ex3_Sub020] (Eterna round: R97, puzzle: Exclusion 3) | 0.041 µM | 0.046 µM |  | 
CCUCCACAUGAGGAUCACCCAUGUCAGGAUAUCGUGUGUGUUUUUUCGGUCUUUCGUGCGAGAAGGGACGUCUG (puzzle: Exclusion 1) |  |  | 0.0456 µM | 
ACAUGAGGAUCACCCAUGUCCGUCUGAUCUGUCUCGGCUGUCGAGGAUAUAGCCCGGUAUCCGCGCUAGAAGGUGGGAGUCGGC [Aenatbe mod 99] (Eterna round: R96, puzzle: Exclusion NG 3) | 0.0298 µM | 0.0357 µM |  | apparent KD of MS2 coat protein [4]: 0.0253 µM
GAUUGACAUGAGGAUCACCCAUGUGAGGAUAUCGGCUGGACCGUGUUGGCUUGGGUUUCGAGAAGGCGCAUAGG [Exclusion 1 V46] (puzzle: Exclusion 1) |  |  | 0.0882 µM | apparent KD of MS2 coat protein [1]: 0.0705 µM; apparent KD of MS2 coat protein [3]: 0.0746 µM
UUUUUAUAUGAAGGAUAUACUUAACAUGAGGAUCACCCAUGUGGUGUUGUGAGUGAGUGAGUUUAGUAGAAGGUCAAUUAGUGU [JMF's solution 102] (Eterna round: R96, puzzle: Exclusion NG 2) | 0.998 µM | 0.476 µM |  | apparent KD of MS2 coat protein [4]: 0.314 µM
UGAAACCUAGGAUAUACAUGAGGAUCACCCAUGUAAUGUAGUAUAGUAUAUGUAAGAUGUAGAAGGAGGAAAGU [LRO-Excl05-27-Smart Aleck] (Eterna round: R97, puzzle: Exclusion 3) | 0.0263 µM | 0.0377 µM |  | 
AAACCUAUAGGAUAUACAUGAGGAUCACCCAUGUUGCGAUUUUUUAGGUAACAGAUCCGUAGAAGGGUAGGGCA [Retebi] (puzzle: Exclusion 3) |  |  | 0.0283 µM | 
AAGUCGAGCGUGAGGAUAUCGUCCGAACGACCGAACGAGAAGGCACAUGAGGAUCACCCAUGUGAUUCAGCUCA [Brourd's EX4 #48] (Eterna round: R97, puzzle: Brourd's mod of Exclusion 4) | 0.0168 µM | 0.0142 µM |  | 
GCAGGUCGAGGAUAUACAUGAGGAUCACCCAUGUUGAUCAAGCGACUUCGGUCGCAAUGUAGAAGGCGACCUGC [E3/7-A6] (Eterna round: R97, puzzle: Exclusion 3) | 0.151 µM | 1.21 µM |  | 

Sequence | apparent KD of MS2 coat protein (input ligand: FMN 200 uM) | apparent KD of MS2 coat protein (input ligand: none) | apparent KD of MS2 coat protein [2] | also measured
GAUGGCUUAGGAUAUACAUAGAAGAAUUGAACUUGGAUUAUACAUGAGGAUCACCCAUGUAGAAGGAGGUCAUC [ExGluten 4 - Jieux - Exclusion 2] (Eterna round: R97, puzzle: Exclusion 2) | 0.053 µM | 0.0291 µM |  | 
AUAAUAAAGGAGGAUAUCGUAUCGGAAACGAUACGAGAAGGUCUAACAUGAGGAUCACCCAUGUUCCUCAAAUA [Mat - Exclusion 6 - Eli Mod - D49] (puzzle: Exclusion 6) |  |  | 0.0409 µM | 
AGUUGGCGAGGAUAUACAUGAGGAUCACCCAUGUGAGAGAUAGUAGUGAGGUCGAUUAGUAGAAGGCGCUGACA [Mat X3R4 m13] (Eterna round: R97, puzzle: Exclusion 3) | 0.278 µM | 0.353 µM |  | 
UUUUGAAAGUGAGGAUAUGACAUGAGGAUCACCCAUGUAAAGGGAGUUGACUAUAUAGCAAGAUAUCAGAAGGCACAAAUGUUU [JR_ExcNG2_Sub003] (Eterna round: R96, puzzle: Exclusion NG 2) | 0.367 µM | 0.645 µM |  | apparent KD of MS2 coat protein [4]: 0.341 µM
GCUGGUCGAGGAUAUACAUGAGGAUCACCCAUGUAGAUCAACCAGCGAUAGCUGGAAUGUAGAAGGUGACCAGC [E3/5-B1] (Eterna round: R97, puzzle: Exclusion 3) | 0.0219 µM | 0.0159 µM |  | 
GGAUCGAGUGUGAGGAUAUACCUAUGGAAACAUAGGUAGAAGGCACAUGAGGAUCACCCAUGUGUUCCCGGUCC [Mat - Exclusion 4 - Eli Mod - D16] (Eterna round: R97, puzzle: Brourd's mod of Exclusion 4) | 0.485 µM | 0.0508 µM |  | 
ACGGACCGAGGAUAUGCAUGCAGGAUACCUGGGUCCAAUGGACAUGAGGAUCACCCAUGUAGAAGGCGGAAAUA [Arinisra] (Eterna round: R97, puzzle: Exclusion 2) | 0.0863 µM | 0.0314 µM |  | 
AAGACAAUUCUCUAGUGCAACAUGAGGAUCACCCAUGUCAUAGAAGCUUUUUGCUCGUGUUAAGUGACUCAAGAGAG [Eternabot (Original) Solution 41] (Eterna round: R97, puzzle: Sensor, turn-off variant 1) | 0.0696 µM | 0.0642 µM |  | 
GGGUGACAUGAGGAUCACCCAUGUCAGGAUAUUGAUCGUGAUCGGAAAUGAUCGUGAUCGAGAAGGGACUGCCC [-27.4, -26.4 kcal, A 27% sequence 2] (Eterna round: R97, puzzle: Exclusion 1) | 0.224 µM | 0.052 µM |  | 
GACGUGUGAGGAUAUCCGAUGCCGGUCCGGAAGGUUCGGGUGGAGAAGGCACAUGAGGAUCACCCAUGUGUAAG [Excls4-VII] (puzzle: Exclusion 4) |  |  | 0.0164 µM | 
GCAGGAUAAGUGAGGAUAUACCUAUGGAUACAUAGGUAGAAGGCACAUGAGGAUCACCCAUGUUCCUAACCUGC [Fiskers BMX 4 - 68] (puzzle: Brourd's mod of Exclusion 4) |  |  | 0.0128 µM | apparent KD of MS2 coat protein [1]: 0.0709 µM; apparent KD of MS2 coat protein [3]: 0.0151 µM
UUUUAACAUGAGGAUCACCCAUGUGAGGAUAUCGAAAUUUAUAUUAAUAUUUAUAUAUCGAGAAGGCACAUUUU [JMF 56] (puzzle: Exclusion 1) |  |  | 0.117 µM | 
CUUUCGUGAGGAUAUCAGUAGUAAAAAAAUAAAAUUACUACUGAGAAGGCACAUGAGGAUCACCCAUGUUCCUC [salish99_ex3_r3_097] (puzzle: Exclusion 4) |  |  | 0.0257 µM | 
GUAGCUCUCGAGGAUAUGGAUAGAAAAGUUAGUCCAGAAGGCGAGACAUGAGGAUCACCCAUGUUGGACUCUGC [Eternabot (L2) Solution 77] (Eterna round: R97, puzzle: Exclusion 6) | 0.118 µM | 0.0604 µM |  | 
GUGGGUUACAUGAGGAUCACCCAUGUAGAGUGGGAAGAGAGAUAGGAUAUGAUGUGAGAAUCAUAUCAGAAGGAUCGAGACUCG [AK ExNG3-2.3] (Eterna round: R96, puzzle: Exclusion NG 3) | 0.512 µM | 0.354 µM |  | apparent KD of MS2 coat protein [4]: 0.158 µM
UGUGCGUAUGUGAGGAUAUGCUGGUCCUUGGAUCAGCAGAAGGCACAUGAGGAUCACCCAUGUGGUGUCGUACA [salish99_Bmod_Ex4_007] (puzzle: Brourd's mod of Exclusion 4) |  |  | 0.158 µM | apparent KD of MS2 coat protein [1]: 0.0292 µM; apparent KD of MS2 coat protein [3]: 0.307 µM
CUUUUGUGAGGAUAUUAGUAGUAAUUAAAUAAAAUUACUACUGAGAAGGCACAUGAGGAUCACCCAUGUUCCUC [salish99_ex4_r3_053] (puzzle: Exclusion 4) |  |  | 0.0359 µM | 
